Reference: patent US20230025732A1 (INNATE PHARMA, published 2023)
Where a chain is given by its changes, count along the chain named.

Assays:
[1] = target: T1, human CD39 expressed at the cell surface (human, UniProt P49961 1-510); assay: flow cytometry, Ramos lymphoma cells, first set of experiments; Ramos cells, first set of experiments
T1 construct: On CHO transfectants, Hek-293T transfectants, Ramos and Mino tumor cells; also called huCD39; CHO-huCD39
T1 sequence: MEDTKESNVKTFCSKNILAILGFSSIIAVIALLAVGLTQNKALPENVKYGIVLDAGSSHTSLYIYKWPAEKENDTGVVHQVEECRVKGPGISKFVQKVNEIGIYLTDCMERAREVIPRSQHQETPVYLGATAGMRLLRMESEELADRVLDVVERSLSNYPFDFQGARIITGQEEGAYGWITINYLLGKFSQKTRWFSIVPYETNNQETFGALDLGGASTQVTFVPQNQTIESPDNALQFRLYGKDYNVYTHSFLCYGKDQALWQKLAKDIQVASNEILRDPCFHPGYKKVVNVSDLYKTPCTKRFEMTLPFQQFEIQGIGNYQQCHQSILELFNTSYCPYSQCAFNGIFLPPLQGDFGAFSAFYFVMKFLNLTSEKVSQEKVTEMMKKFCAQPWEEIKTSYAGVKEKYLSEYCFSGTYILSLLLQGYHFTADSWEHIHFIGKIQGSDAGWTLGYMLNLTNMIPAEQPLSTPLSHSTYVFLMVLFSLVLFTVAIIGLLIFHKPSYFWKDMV
Procedure: (§1) Cells were incubated with various concentration of unlabeled anti-CD39 antibody from 30 μg/ml to 5×10⁻⁴ μg/ml, for 30 minutes at 4° C. After washes, cells were incubated with Goat anti-mouse H+L labeled secondary antibody for 30 min at 4° C.

[2] = target: T1, human CD39 expressed at the cell surface; assay: flow cytometry, Ramos lymphoma cells, second set of experiments; Ramos cells, second set of experiments
Procedure: as §1

[3] = target: T1, human CD39 expressed at the cell surface; assay: flow cytometry titration on CHO cells expressing human CD39 (Mediane of Fluo), panel CHO-huCD39
Procedure: as §1

[4] = target: T2, Human CD39-L3, also known as NTPDase3 or ENTPD3 (human, UniProt O75355 44-485, limits assumed); assay: ELISA on coated recombinant human CD39-L3, panel huCD39 L3; no legend on the sheet, curve is I-394 by paragraph 85
T2 construct: Recombinant protein coated in ELISA
T2 sequence: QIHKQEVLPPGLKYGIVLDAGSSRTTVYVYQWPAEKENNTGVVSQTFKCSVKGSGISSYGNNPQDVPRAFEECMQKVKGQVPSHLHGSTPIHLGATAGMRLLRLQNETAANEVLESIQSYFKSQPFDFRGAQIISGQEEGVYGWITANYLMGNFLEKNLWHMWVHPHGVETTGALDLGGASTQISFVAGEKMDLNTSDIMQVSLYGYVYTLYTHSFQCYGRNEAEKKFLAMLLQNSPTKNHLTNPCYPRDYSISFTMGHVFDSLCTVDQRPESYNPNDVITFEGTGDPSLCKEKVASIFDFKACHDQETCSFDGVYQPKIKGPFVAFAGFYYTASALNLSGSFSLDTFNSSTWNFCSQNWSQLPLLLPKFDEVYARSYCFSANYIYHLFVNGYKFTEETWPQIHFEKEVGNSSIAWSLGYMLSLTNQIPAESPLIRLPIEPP
Procedure: (§2) Wells were washed in TBS Tween 20, and further saturated 2H at RT in TBS Blocking buffer. Dose range concentration of primary antibody was incubated in TBS blocking buffer for 2 h at RT. Wells were washed in TBS Tween 20. […] Optical density was measured on Enspire™ at OD=450.

[5] = target: T3, Human CD39-L4, also known as NTPDase5 or ENTPD5 (human, UniProt O75356 25-428); assay: ELISA on coated recombinant human CD39-L4, panel huCD39 L4; no legend on the sheet, curve is I-394 by paragraph 85
T3 construct: Recombinant protein coated in ELISA
T3 sequence: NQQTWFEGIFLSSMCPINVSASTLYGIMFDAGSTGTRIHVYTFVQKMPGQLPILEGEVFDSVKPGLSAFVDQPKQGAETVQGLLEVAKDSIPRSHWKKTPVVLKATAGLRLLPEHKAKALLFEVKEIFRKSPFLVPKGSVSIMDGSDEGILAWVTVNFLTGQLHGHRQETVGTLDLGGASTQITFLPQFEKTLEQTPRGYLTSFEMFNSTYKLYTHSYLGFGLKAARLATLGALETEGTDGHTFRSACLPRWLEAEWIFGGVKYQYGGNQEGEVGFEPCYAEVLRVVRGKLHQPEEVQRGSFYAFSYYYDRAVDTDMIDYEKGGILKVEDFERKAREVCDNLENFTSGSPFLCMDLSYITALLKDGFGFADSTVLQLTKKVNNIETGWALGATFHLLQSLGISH
Procedure: as §2

CD39 mutant 19 = target: T4, CD39 mutant 19 (human, UniProt P49961 1-510); assay: flow cytometry on Hek-293T cells transfected with CD39 mutant 19 (panel M19); antibody concentration not given on the sheet
T4 construct: expressed on Hek-293T cells; also called M19
T4 chain: T1 sequence with R138A, M139A, E142K
From the text: Mutants were transfected in Hek-293T cells, as shown in the table 1, using numbering of SEQ ID NO: 1. […] Mutant 19 includes substitutions at residues R138, M139 and E142.

EC50 [1]: 0.16 µg/mL
EC50 [2]: 0.19 µg/mL
EC50 (read off the curve) [3]: ~0.2 µg/mL
binding result [4]: no binding (tested: about 50 µg/ml)
binding result [5]: no binding (tested: about 50 µg/ml)
binding result (CD39 mutant 19): no binding
B1: I-394 (antibody, human IgG1, V domains shown)
VH: EVQLQQSGPELVKPGASVKMSCKASGYTFTDYNMHWVKQSHGRTLEWIGYIVPLNGGSTFNQKFKGRATLTVNTSSRTAYMELRSLTSEDSAAYYCARGGTRFAYWGQGTLVTVSA
VL: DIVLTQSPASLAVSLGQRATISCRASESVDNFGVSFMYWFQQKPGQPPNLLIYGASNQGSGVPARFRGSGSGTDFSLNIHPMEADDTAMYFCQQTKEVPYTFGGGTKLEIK
